Reference: article PMC10397247

T1: 4H3907-bA
T1 chain: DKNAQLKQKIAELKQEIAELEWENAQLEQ

T2: P1mSN
T2 chain: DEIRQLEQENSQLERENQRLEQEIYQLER

T3: 4H470-bA
T3 chain: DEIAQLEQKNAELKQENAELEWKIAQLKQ

T4: 4H3961-bA
T4 chain: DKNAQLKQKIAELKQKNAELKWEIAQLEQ

T5: 4H344-bA
T5 chain: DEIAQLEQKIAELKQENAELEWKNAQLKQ

T6: 4H2745-bA
T6 chain: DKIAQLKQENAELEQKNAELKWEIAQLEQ

T7: 4H3974-bA
T7 chain: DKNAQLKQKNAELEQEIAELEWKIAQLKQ

T8: 4H363-bA
T8 chain: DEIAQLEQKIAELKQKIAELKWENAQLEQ

T9: P4A-bS
T9 chain: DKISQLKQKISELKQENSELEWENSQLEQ

T10: P7A-bS
T10 chain: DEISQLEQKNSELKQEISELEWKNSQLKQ

T11: P8A-bS
T11 chain: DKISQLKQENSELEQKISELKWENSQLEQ

T12: P9A-bS
T12 chain: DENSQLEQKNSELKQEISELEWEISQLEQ

T13: P2A-bS
T13 chain: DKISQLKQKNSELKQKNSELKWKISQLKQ

T14: P6A-bS
T14 chain: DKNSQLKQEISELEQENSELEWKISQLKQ

T15: P5A-bS
T15 chain: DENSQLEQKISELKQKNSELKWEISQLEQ

T16: P3A-bS
T16 chain: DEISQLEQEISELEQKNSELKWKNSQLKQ


Assays:
Assay in all cases: two-hybrid library CCNG1;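 note: natural log of median RNA to DNA barcode read ratio; higher means stronger binding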
4H3907-bA = target: T1, 4H3907-bA
P1mSN = target: T2, P1mSN
4H470-bA = target: T3, 4H470-bA
4H3961-bA = target: T4, 4H3961-bA
4H344-bA = target: T5, 4H344-bA
4H2745-bA = target: T6, 4H2745-bA
4H3974-bA = target: T7, 4H3974-bA
4H363-bA = target: T8, 4H363-bA
P4A-bS = target: T9, P4A-bS
P7A-bS = target: T10, P7A-bS
P8A-bS = target: T11, P8A-bS
P9A-bS = target: T12, P9A-bS
P2A-bS = target: T13, P2A-bS
P6A-bS = target: T14, P6A-bS
P5A-bS = target: T15, P5A-bS
P3A-bS = target: T16, P3A-bS

| interaction score (4H3907-bA) | interaction score (P1mSN) | interaction score (4H470-bA) | interaction score (4H3961-bA) | interaction score (4H344-bA) | interaction score (4H2745-bA) | interaction score (4H3974-bA) | interaction score (4H363-bA) | interaction score (P4A-bS) | interaction score (P7A-bS) | interaction score (P8A-bS) | interaction score (P9A-bS) | interaction score (P2A-bS) | interaction score (P6A-bS) | interaction score (P5A-bS) | interaction score (P3A-bS) | Binder |
| --- | --- | --- | --- | --- | --- | --- | --- | --- | --- | --- | --- | --- | --- | --- | --- | --- |
| -1.14 | -0.547 | 2.34 | -1.18 | 0.257 | -0.711 | 0 | -1.18 | – | – | – | – | – | – | – | – | DKIAQLKQENAELEQKNAELKWEIAQLEQ [4H2745-bA] |
| – | – | – | – | – | – | – | – | -0.497 | -0.792 | -0.742 | -0.777 | -1.36 | -1.71 | -0.924 | -0.857 | DKISQLKQKNSELKQKNSELKWKISQLKQ [P2A-bS] |
